Consider 53 sequences from the supplement of paper PMC11780869.

This data set deals with Bacillus subtilis. Briefly: cleaved RNA product abundance (RNA/gDNA barcode ratio) relative to median wild-type variant (ratio to wild type); higher = more accumulation of the downstream cleavage product. Conditions: cleavage site: cggR-gapA (positions -7 to +36 mutated). The method, boiled down:
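B. subtilis strains with chromosomally integrated reporter mRNAs (truncated aprE or tetM) holding barcoded, mutagenized RNase Y cleavage-site windows grew in LB at 37°C from OD600 0.0003 to 0.3. Cleaved product abundance is each construct's RNA:gDNA barcode ratio, scaled to the median construct with the unmutated site. It came from sequencing barcodes of gel-selected, reverse-transcribed cleaved RNA and of genomic DNA.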

The mark [1] stands for this setting: experiment (reporter, strain, medium): exp 2b: truncated aprE reporter, strain BJT200.
Setting [2] is: experiment (reporter, strain, medium): exp 4a: truncated aprE reporter, strain BJT201 with 2% xylose (RNase J1 expressed).

With “ACAGACGAAGGAGCCGCAAAGAAGTTATTAAGGGATGTATAATCTCTCAATATAAATATCTCTCACTTATTTAAA”, the “cleaved RNA product abundance” value reads like this: under setting [1], 0.708; under setting [2], 0.513. In the case of “ACAGACGAAGGAGCCGCAAAGAAGTTATTAAGGGATGTATAATTCCTCAATATAAATATCTCTCACTTATTTAAA”, the “cleaved RNA product abundance” value under setting [2] was 0.576. Same read-out and setting: then “ACAGACGAAGGAGCCGCAAAGAAGTTATTAAGGGATGTATATTCCCTCAATATAAATATCTCTCACTTATTTAAA”, with 0.88; and “ACAGACGAAGGAGCCGCAAAGAAGTTATTAAGGGATGTGTAATCCCTCAATATAAATATCTCTCACTTATTTAAA”, with 0.526. As for “ACAGACGAAGGAGCCGCAAAGAAGTTATTAAGGGATTAAAAATCCCTCAATATAAATATCTCTCACTTATTTAAA”, the “cleaved RNA product abundance” value came to 0.941 under setting [1] and 0.629 under setting [2]. Taken in the same sequence, the figures for “ACAGACGAAGGAGCCGCAAAGAAGTTATTAAGGGATTAACAATCCCTCAATATAAATATCTCTCACTTATTTAAA” were 1.08 and 0.961. “ACAGACGAAGGAGCCGCAAAGAAGTTATTAAGGGATTAAGAATCCCTCAATATAAATATCTCTCACTTATTTAAA”: the “cleaved RNA product abundance” value under setting [2] turned out to be 1.06.

On to “ACAGACGAAGGAGCCGCAAAGAAGTTATTAAGGGATTAATAAACCCTCAATATAAATATCTCTCACTTATTTAAA”, for which the “cleaved RNA product abundance” value was 0.559 under setting [1] and 0.575 under setting [2]. Taken in the same sequence, the figures for “ACAGACGAAGGAGCCGCAAAGAAGTTATTAAGGGATTAATAACCCCTCAATATAAATATCTCTCACTTATTTAAA” were 0.749 and 0.72. Take “ACAGACGAAGGAGCCGCAAAGAAGTTATTAAGGGATTAATAAGCCCTCAATATAAATATCTCTCACTTATTTAAA”: the “cleaved RNA product abundance” value under setting [1] came out at 0.453 and the “cleaved RNA product abundance” value under setting [2] is 0.667. For the sequence “ACAGACGAAGGAGCCGCAAAGAAGTTATTAAGGGATTAATAATACCTCAATATAAATATCTCTCACTTATTTAAA”, the “cleaved RNA product abundance” value came out at 0.139 under setting [1] and 0.187 under setting [2]. With “ACAGACGAAGGAGCCGCAAAGAAGTTATTAAGGGATTAATAATCACTCAATATAAATATCTCTCACTTATTTAAA”, under setting [2], the “cleaved RNA product abundance” value is 0.129. As for “ACAGACGAAGGAGCCGCAAAGAAGTTATTAAGGGATTAATAATCCATCAATATAAATATCTCTCACTTATTTAAA”, the “cleaved RNA product abundance” value reads like this: under setting [1], 0.401; under setting [2], 0.288.

As to “ACAGACGAAGGAGCCGCAAAGAAGTTATTAAGGGATTAATAATCCCACAATATAAATATCTCTCACTTATTTAAA”, the “cleaved RNA product abundance” value is, setting by setting: under setting [1], 0.238; under setting [2], 0.347. As for “ACAGACGAAGGAGCCGCAAAGAAGTTATTAAGGGATTAATAATCCCCCAATATAAATATCTCTCACTTATTTAAA”, the “cleaved RNA product abundance” value under setting [2] came out at 0.272. Same read-out and setting: then “ACAGACGAAGGAGCCGCAAAGAAGTTATTAAGGGATTAATAATCCCGCAATATAAATATCTCTCACTTATTTAAA”, with 0.225. With “ACAGACGAAGGAGCCGCAAAGAAGTTATTAAGGGATTAATAATCCCTAAATATAAATATCTCTCACTTATTTAAA”, the “cleaved RNA product abundance” value reads like this: under setting [1], 0.535; under setting [2], 0.745. For the sequence “ACAGACGAAGGAGCCGCAAAGAAGTTATTAAGGGATTAATAATCCCTCAAAATAAATATCTCTCACTTATTTAAA”, the “cleaved RNA product abundance” value runs as follows: under setting [1], 0.334; under setting [2], 0.419. In the case of “ACAGACGAAGGAGCCGCAAAGAAGTTATTAAGGGATTAATAATCCCTCAACATAAATATCTCTCACTTATTTAAA”, the “cleaved RNA product abundance” value under setting [2] was 0.444. Regarding “ACAGACGAAGGAGCCGCAAAGAAGTTATTAAGGGATTAATAATCCCTCAAGATAAATATCTCTCACTTATTTAAA”, the “cleaved RNA product abundance” value under setting [1] came out at 0.203 and the “cleaved RNA product abundance” value under setting [2] was determined as 0.254. For the sequence “ACAGACGAAGGAGCCGCAAAGAAGTTATTAAGGGATTAATAATCCCTCAATATAAACATCTCTCACTTATTTAAA”, the “cleaved RNA product abundance” value under setting [2] was 0.803.

Take “ACAGACGAAGGAGCCGCAAAGAAGTTATTAAGGGATTAATAATCCCTCAATATAAAGATCTCTCACTTATTTAAA”: the “cleaved RNA product abundance” value by setting is: under setting [1], 0.486; under setting [2], 0.818. The like results for “ACAGACGAAGGAGCCGCAAAGAAGTTATTAAGGGATTAATAATCCCTCAATATAAATAACTCTCACTTATTTAAA” were, in that order, 1.02 and 0.594. “ACAGACGAAGGAGCCGCAAAGAAGTTATTAAGGGATTAATAATCCCTCAATATAAATATATCTCACTTATTTAAA”: the “cleaved RNA product abundance” value under setting [2] was found to be 1.23. Turning to “ACAGACGAAGGAGCCGCAAAGAAGTTATTAAGGGATTAATAATCCCTCAATATAAATATCTCTCACTTATTTAAA”, the “cleaved RNA product abundance” value came out at 0.996 under setting [1]; 0.958 under setting [2]; 1.09 (experiment (reporter, strain, medium): exp 6: tetM reporter, strain 168). As to “ACAGACGAAGGAGCCGCAAAGAAGTTATTAAGGGATTAATAATCCCTCAATATAAATCTCTCTCACTTATTTAAA”, the “cleaved RNA product abundance” value under setting [2] amounted to 0.637. On the same count and under the same terms, then “ACAGACGAAGGAGCCGCAAAGAAGTTATTAAGGGATTAATAATCCCTCAATATAAATGTCTCTCACTTATTTAAA”, with 0.707. On to “ACAGACGAAGGAGCCGCAAAGAAGTTATTAAGGGATTAATAATCCCTCAATATAAATTTCTCTCACTTATTTAAA”, for which the “cleaved RNA product abundance” value is 0.686 under setting [1] and 0.57 under setting [2].

With “ACAGACGAAGGAGCCGCAAAGAAGTTATTAAGGGATTAATAATCCCTCAATATAATTATCTCTCACTTATTTAAA”, the “cleaved RNA product abundance” value under setting [2] was determined as 0.43. The same measure, in the same setting: then “ACAGACGAAGGAGCCGCAAAGAAGTTATTAAGGGATTAATAATCCCTCAATATACATATCTCTCACTTATTTAAA”, with 0.799. On to “ACAGACGAAGGAGCCGCAAAGAAGTTATTAAGGGATTAATAATCCCTCAATATATATATCTCTCACTTATTTAAA”, for which, under setting [2], the “cleaved RNA product abundance” value came out at 0.957. In the case of “ACAGACGAAGGAGCCGCAAAGAAGTTATTAAGGGATTAATAATCCCTCAATATCAATATCTCTCACTTATTTAAA”, the “cleaved RNA product abundance” value under setting [2] was found to be 0.0629. “ACAGACGAAGGAGCCGCAAAGAAGTTATTAAGGGATTAATAATCCCTCAATCTAAATATCTCTCACTTATTTAAA”: under setting [1], the “cleaved RNA product abundance” value stood at 0.164. Take “ACAGACGAAGGAGCCGCAAAGAAGTTATTAAGGGATTAATAATCCCTCAATGTAAATATCTCTCACTTATTTAAA”: the “cleaved RNA product abundance” value under setting [2] was determined as 0.108.

With “ACAGACGAAGGAGCCGCAAAGAAGTTATTAAGGGATTAATAATCCCTCAATTTAAATATCTCTCACTTATTTAAA”, the “cleaved RNA product abundance” value under setting [2] is 0.176.

“ACAGACGAAGGAGCCGCAAAGAAGTTATTAAGGGATTAATAATCCCTCACTATAAATATCTCTCACTTATTTAAA”: the “cleaved RNA product abundance” value turned out to be 0.233 under setting [1] and 0.26 under setting [2]. As to “ACAGACGAAGGAGCCGCAAAGAAGTTATTAAGGGATTAATAATCCCTCAGTATAAATATCTCTCACTTATTTAAA”, under setting [2], the “cleaved RNA product abundance” value is 0.224.

“ACAGACGAAGGAGCCGCAAAGAAGTTATTAAGGGATTAATAATCCCTCATTATAAATATCTCTCACTTATTTAAA”: the “cleaved RNA product abundance” value under setting [1] came out at 0.247 and the “cleaved RNA product abundance” value under setting [2] was 0.534. Take “ACAGACGAAGGAGCCGCAAAGAAGTTATTAAGGGATTAATAATCCCTCCATATAAATATCTCTCACTTATTTAAA”: the “cleaved RNA product abundance” value under setting [2] came to 0.197. With “ACAGACGAAGGAGCCGCAAAGAAGTTATTAAGGGATTAATAATCCCTCGATATAAATATCTCTCACTTATTTAAA”, the “cleaved RNA product abundance” value under setting [2] came to 0.594.

With “ACAGACGAAGGAGCCGCAAAGAAGTTATTAAGGGATTAATAATCCCTCTATATAAATATCTCTCACTTATTTAAA”, the “cleaved RNA product abundance” value under setting [2] turned out to be 0.547. “ACAGACGAAGGAGCCGCAAAGAAGTTATTAAGGGATTAATAATCCCTGAATATAAATATCTCTCACTTATTTAAA”: the “cleaved RNA product abundance” value under setting [2] is 0.768.

For “ACAGACGAAGGAGCCGCAAAGAAGTTATTAAGGGATTAATAATCCCTTAATATAAATATCTCTCACTTATTTAAA”, the “cleaved RNA product abundance” value under setting [2] stood at 0.563. As for “ACAGACGAAGGAGCCGCAAAGAAGTTATTAAGGGATTAATAATCCGTCAATATAAATATCTCTCACTTATTTAAA”, the “cleaved RNA product abundance” value under setting [2] stood at 0.165. Consider “ACAGACGAAGGAGCCGCAAAGAAGTTATTAAGGGATTAATAATCCTTCAATATAAATATCTCTCACTTATTTAAA”, for which the “cleaved RNA product abundance” value runs as follows: under setting [1], 0.431; under setting [2], 0.39. For the sequence “ACAGACGAAGGAGCCGCAAAGAAGTTATTAAGGGATTAATAATCGCTCAATATAAATATCTCTCACTTATTTAAA”, the “cleaved RNA product abundance” value runs as follows: under setting [1], 0.109; under setting [2], 0.0904.

In the case of “ACAGACGAAGGAGCCGCAAAGAAGTTATTAAGGGATTAATAATCTCTCAATATAAATATCTCTCACTTATTTAAA”, the “cleaved RNA product abundance” value under setting [1] amounted to 0.716.

For “ACAGACGAAGGAGCCGCAAAGAAGTTATTAAGGGATTAATAATGCCTCAATATAAATATCTCTCACTTATTTAAA”, the “cleaved RNA product abundance” value was found to be 0.14 under setting [1] and 0.125 under setting [2]. As for “ACAGACGAAGGAGCCGCAAAGAAGTTATTAAGGGATTAATAATTCCTCAATATAAATATCTCTCACTTATTTAAA”, the “cleaved RNA product abundance” value under setting [1] was 0.543 and the “cleaved RNA product abundance” value under setting [2] amounted to 0.569.

Regarding “ACAGACGAAGGAGCCGCAAAGAAGTTATTAAGGGATTAATATTCCCTCAATATAAATATCTCTCACTTATTTAAA”, under setting [2], the “cleaved RNA product abundance” value came to 1.13. With “ACAGACGAAGGAGCCGCAAAGAAGTTATTAAGGGATTAATCATCCCTCAATATAAATATCTCTCACTTATTTAAA”, the “cleaved RNA product abundance” value under setting [2] turned out to be 1.2. On to “ACAGACGAAGGAGCCGCAAAGAAGTTATTAAGGGATTATTAATCCCTCAATATAAATATCTCTCACTTATTTAAA”, for which the “cleaved RNA product abundance” value was 0.957 under setting [1] and 1.09 under setting [2].

As for “ACAGACGAAGGAGCCGCAAAGAAGTTATTAAGGGATTGAATAATCCCTCAATATAAATATCTCTCACTTATTTAA”, under setting [2], the “cleaved RNA product abundance” value stood at 0.788.
